The series is described as follows: soluble on expression in E. coli; label from the status in PepcDB or PDB records.
In the case of “MAHHHHHHMEAGARFPAAATPPASAGAAAVQGDAESEPDDERWSLSDGEPEAIPAKNGEPSDADVDAAMAAKGEAAELHGEGKQEEAIAKMGEALAYNPGNAMYWGMRALYHLEFNKPRAALHDANKALELNPQNVRALRVRGTVNRHLGHWEDSLKDLSAAQAIDYDDKTNETLKYVQSRATQRHKRQLARHHAEEEAAARRQEELRRQRQREAEEAAAAAEAQAAPGSMPGGLPRGFPGGMPGGMPGGMPGGMPPGMESVLQDPEIMVAMQDPEVAPKLAQMMQNPMAAMSMMNDPKVGPVMQKIMAKMMGGGGMPGGMGGMGGMGGFQGAGGMPSHRGAADGASGSTRRDDLD”, the “soluble on expression in E. coli” value is “not soluble”.
Take “MGSDKIHHHHHHMSLTNVLFLAEELRVGGAETYFYKIENKIDLKKINFYTAAVNGRCFDKLNNKHMYFEYEKGLFSKIKTIKKIVISKNINVIHANSLRLAIISSIVKKLYKKDLKIVYTKHNLTILEKIHTKLFSAFVNKNVDIVLAVCNKDRDNMISIGVSEEKVKVIPNSIDLKHFKFNSKYLRDAGKDFKVGMLSRLSKEKNHEFFLDIAEKADFRALIGGDGPLREEINNRIEKSNLKKKVKMLGNIENSYEFLSSVDVMLLVSTREIFPMTLLEAMAVGTIVISVDIGGIRDCVINDKTGYVIDDYQSEKFITKISDILSDYDKNKELISAARELVENSFNLDITIDELQRLYGEVGL”: the “soluble on expression in E. coli” value is recorded as “not soluble”.
With “MKKTLTSPLVAAIAHTAAPVHAGTLEDVKARGNLLCSSTTGSPGFSMPDDAGKRHGLEVDVCRAIATAVFGDPERHKIVVLNPIQRFTALQSGEVDILFNTTTWTLSREGAGALYAGVTYYDGQGVLVRKGTIASAKELDGGAICTNQGSTTELNLVDFFRANKVSNEVITFATVQEAANAYESGRCDAWSADAGILAALRSKMKAPDDHVILADRLSKEPLGAAVRKGDDAWFSVVRWSIFALQAAEELGLTSKNIAEQAKSTTNPEVLRFVGKEGSLGKVLGLNGDWAYQIVAQVGSYAEIFDRNIGAASPLNLERGINASWKNGGLFYTPPFR”, the “soluble on expression in E. coli” value was “not soluble”.
With “MGSDKIHHHHHHMKFIVSSTALFSHLQAVSRVINSKNALPILDCFLFQLEDGTLSVTVSDSETTMVTSVEVNESDSNGKFAVAAKTLLDALKEIPEQPLTFDIKPDTYEITVQYQNGKYSLMGQNADEFPQSATLGDNAVRVEMEAQILLGGINRSVFATADDELRPVMNGIYFDITTEDITMVASDGHKLVRCKTLAARGNERAAFILPKKPATLLKNLLPKESGMVVIEFDERNAVFTLESYRMVCRLIEGRYPNYNSVIPQNNPHKVTVDRMQLMGALRRVSIFSSQASSLIKLRMQENQIVVSAQDIDFSTSAEETQVCQYAGAAMSIGFKSTFLIDILNNISADEVVIELADPSRAGVIIPVEQEENEDLLMLLMPMMLND” the entry was “not soluble”.
Turning to “SDPVVLSYMDSLLRQSDVSLLDPPSWLNDHIIGFAFEYFANSQFHDCSDHVSFISPEVTQFIKCTSNPAEIAMFLEPLDLPNKRVVFLAINDNSNQAAGGTHWSLLVYLQDKNSFFHYDSHSRSNSVHAKQVAEKLEAFLGRKGDKLAFVEEKAPAQQNSYDCGMYVICNTEALCQNFFRQQTESLLQLLTPAYITKKRGEWKDLIATLAKK”, the “soluble on expression in E. coli” value was “soluble”.
With “MASKKREVQLQSVVNSQNLWDEMLLNKGLTVIDVYQAWCGPCKAVQSLFRKLKNELNEDEILHFVVAEADNIVTLQPFRDKCEPVFLFSLNGKIIAKIQGANAPLINRKVITLIDEERKIVAGEMDRPQYVEIPLVDAIDEEYGEVQYESAAEVYNMAIIKPDAVLMRKNIEVREKIAKEGFVIEIQENLILPEEVVREFYTHIADQPDFEEFVVSMTNGLSCVLIVSQEDSEVIQEETLPQTDTEEEPGVLEEPHVRFAPVMIKKKRDSLQEYMDRQYMSDYCDVEDDAVKVFKLIDILFPDFKTMKSTNVQTTLALLHPDICEEEKDDVLNVIHNEGFTILMQRQIVLSEEEARTVCKIHENEEYFDNLIGHMTSNHSYVLALRRENGVEYWKTLIGPKTIEEAYASHPQSLCVQFASGNFPTNQFYGSSSKAAAEKEIAHFFPPQSTLALIKPHVTHKERIHRSSRR” the entry was “not soluble”; with “MSSKKNFEVGENVACIYKGKPYDAKITDIKTNSDGKELYCVHFKGWNNRYDEKIPVGEEKDRIFKGTASEYAEKHNAELPTTALKPKKKSLAAEAPRDDRDDTPGTSKGKKAKSVTIAPVMTADDMKVELPKPLRKILIDDYDLVCRYFINIVPHEYSVDQIIEDYIKTIPVSNEQMRTVDDLLIEYEEADIKITNLALICTARGLVDYFNVTLGYQLLYKFERPQYNDLVKKRAMEKGIDITNPTALQDSGFRPSQEYGIVHFLRMLAKLPDYLKLTQWNDHVINRIMIGVHDLIVFLNKNHGKYYRGSSDYQGASNDYYRRSLAADDGVGANQ”, “not soluble”; with “GSSGSSGMGNSKSGALSKEILEELQLNTKFSEEELCSWYQSFLKDCPTGRITQQQFQSIYAKFFPDTDPKAYAQHVFRSFDSNLDGTLDFKEYVIALHMTTAGKTNQKLEWAFSLYDVDGNGTISKNEVLEIVMAIFKMITPEDVKLLPDDENTPEKRAEKIWKYFGKNDDDKLTEKEFIEGTLANKEILRLIQFEPQKVKEKMKNA”, “soluble”.
The same measure for “MSVVKSIELVLPEDRIYLAGSSIKGQVILTLNSTLVDPIVKVELVGRGYVEWSEEAGASCDYSRNVICNNKADYVHKTKTFPVEDNWLSAGSHTFDFHFNLPPRLPSTFTSKFGHVFYFVQASCMGREHILAKKRMYLLVQGTSTFHKETPFQNPLFVEAEEKVSYNCCRQGTVCLQIQMERNTFTPGEKVVFTTEINNQTSKCIKTVVFALYAHIQYEGFTPSAERRSRLDSSELLRQEANTPVTRFNTTKVVSTFNLPLLLSVSSSTQDGEIMHTRYELVTTVHLPWSLTSLKAKVPIIITSASVDSAICQLSEDGVLPVNPDHQN”: “soluble”; for “MSLQGPNPIITVYSTQDYPILHAELASQVYLMDQVEQWENMISQRLSANPSVAAQQASQIFQSAEWKQSEEQLKRSYQGLISGWQNGIKKVPAVLFQYPGKEDSVIYGETNIAQALSLWQREITKEGTREGHHHHHH”: “soluble”; for “MSKKPVALIILDGFALRDETYGNAVAQANKPNFDRYWNEYPHTTLKACGEAVGLPEGQMGNAEVGHLNIGAGRIVYQSLTRINIAIREGEFDRNETFLAAMNHVKQHGTSLHLFGLLSDGGVHSHIHHLYALLRLAAKEGVKRVYIHGFLDGRDVGPQTAPQYIKELQEKIKEYGVGEIATLSGRYYSMDRDKRWDRVEKAYRAMVYGEGPTYRDPLECIEDSYKHGIYDEFVLPSVIVREDGRPVATIQDNDAIIFYNFRPDRAIQISNTFTNEDFREFDRGPKHPKHLFFVCLTHFSETVAGYVAFKPTNLDNTIGEVLSQHGLRQLRIAETEKYPHVTFFMSGGREEEFPGEDRILINSPKVPTYDLKPEMSAYEVTDALLKEIEADKYDAIILNYANPDMVGHSGKLEPTIKAVEAVDECLGKVVDAILAKGGIAIITADHGNADEVLTPDGKPQTAHTTNPVPVIVTKKGIKLRDGGILGDLAPTMLDLLGLPQPKEMTGKSLIVK”: “soluble”.
With “MNNENKTHIADSVLDVIVVGGGINGAGIAADAAGRGLTVGLYEASDFASATSSASSKLIHGGLRYLEHYEFRLVSEALAEREVLLAKAPHIAKPMRFRLPHRPFLRPAWMIRAGLFLYDNLGKRTTLPASHSVDLAASGLLKSEITKGFEYSDCWVDDARLVILNAMAAEKNGAEVKNYCRVEKAIRVDNIWHVTVFDVQANVRFERKARALVNAAGPWVKQFFDDSLEDESPRNIRLVKGSHIVVPKIHNEEQAYILQNKDNRIVFVIPYMEDFSIIGTTDVEYKGDPRKVEISEEEVNYLIDVVNQHFVDQIKRDDVVWTYSGVRPLCDDESDSPQAITRDYTLELEQELDQAPLLSIFGGKLTTYRKLGETAMKMLNPYFAKMGTPWTRNVALPGGDFDYPRHQLVDNICCKHPWLAKETVTRYVNQFGTLTWTLLEGIECQSDMGELFAQGVYQAEIDYLIKHEFAKNAEDVLWRRTKLGLYLTEEEEKQIALYIESYLSHRHKVKLQNVILEHHHHHH” the entry was “soluble”.

(Values after the DeepSol protein solubility set.)
